# Measured values: patent US20210008207A1 (TECHNISCHE UNIVERSIT T M NCHEN, published 2021)
# B1: HopQ of H. pylori strain P12, on live wild-type bacteria (compared with the isogenic P12ΔhopQ mutant) (other)
# chain: AEDNGVFLSVGYQIGEAVQKVKNADKVQKLSDTYEQLSRLLTNDNGTNSKTSAQAINQAVNNLNERAKTLAGGTTNSPAYQATLLALRSVLGLWNSMGYAVICGGYTKSPGENNQKNFHYTDENGNGTTINCGGSTNSNGTHSSNGTNTLKADKNVSLSIEQYEKIHESYQILSKALKQAGLAPLNSKGEKLEAHVTTSKYQQDSQTKTTTSVIDTTNDAQNLLTQAQTIVNTLKDYCPMLIAKSSSGSGGGAATNTPSWQTAGGGKNSCETFGAEFSAASDMINNAQKIVQETQQLSANQPKNITQPHNLNLNTPSSLTALAQKMLKNAQSQAEILKLANQVESDFNKLSSGHLKDYIGKCDMSAISSTNMTMQSQKNNWGNGCAGVEETLTSLKTSAADFNNQTPQINQAQNLANTLIQELGNNPFRNMGMIASSTTNNGALNGLGVQVGYKQFFGEKKRWGLRYYGFFDYNHAYIKSNFFNSASDVWTYGVGSDLLFNFINDKNTNFLGKNNQISFGLFGGIALAGTSWLNSQFVNLKTISNVYSAKVNTANFQFLFNLGLRTNLARPKKKDSHHAAQHGIELGVKIPTINTNYYSFLDTKLEYRRLYSVYLNYVFAY
# Assays:
# [1] = biological target: CEACAMs endogenously expressed on AGS gastric cancer cells (CEACAM1, CEACAM5 and CEACAM6); assay: flow cytometry; AGS cells with myc-His-tagged HopQ, anti c-myc mAb, FITC goat anti-mouse F(ab')2; thin line: control IgG; number in the panel = median
# [2] = biological target: CEACAM7 on transfected CHO cells (human) (UniProt Q14002); assay: flow cytometry; CHO transfectant 'CEACAM7' with HopQ as in Fig. 6 b; number in the panel = median; untransfected CHO with HopQ: 6 [cont.) c]
# [3] = biological target: human CEACAM1 (hu-CEACAM1-4L) on stably transfected CHO cells (human) (UniProt P13688); assay: flow cytometry; CHO transfectant 'CEACAM1' with HopQ as in Fig. 6 b; number in the panel = median; untransfected CHO with HopQ: 6 [cont.) c]
# [4] = biological target: CEACAM8 on transfected CHO cells (human) (UniProt P31997); assay: flow cytometry; CHO transfectant 'CEACAM8' with HopQ as in Fig. 6 b; number in the panel = median; untransfected CHO with HopQ: 6 [cont.) c]
# [5] = biological target: human CEACAM1 (hu-CEACAM1-4L) on stably transfected CHO cells (human) (UniProt P13688); assay: flow cytometry; CHO-CEACAM1 cells with myc-His-tagged HopQ, anti c-myc mAb, FITC goat anti-mouse F(ab')2; thin line: control IgG; number in the panel = median
# [6] = biological target: CEACAM4 on transfected CHO cells (human) (UniProt O75871); assay: flow cytometry; CHO transfectant 'CEACAM4' with HopQ as in Fig. 6 b; number in the panel = median; untransfected CHO with HopQ: 6 [cont.) c]
# [7] = biological target: CEACAM6 on transfected CHO cells (human) (UniProt P40199); assay: flow cytometry; CHO transfectant 'CEACAM6' with HopQ as in Fig. 6 b; number in the panel = median; untransfected CHO with HopQ: 6 [cont.) c]
# [8] = biological target: CEACAMs endogenously expressed on MKN45 gastric cancer cells (CEACAM1, CEACAM5 and CEACAM6); assay: flow cytometry; MKN45 cells with myc-His-tagged HopQ, anti c-myc mAb, FITC goat anti-mouse F(ab')2; thin line: control IgG; number in the panel = median
# [9] = biological target: CEACAM5 on transfected CHO cells (human) (UniProt P06731); assay: flow cytometry; CHO transfectant 'CEACAM5' with HopQ as in Fig. 6 b; number in the panel = median; untransfected CHO with HopQ: 6 [cont.) c]
# [10] = biological target: CEACAM3 on transfected CHO cells (human) (UniProt P40198); assay: flow cytometry; CHO transfectant 'CEACAM3' with HopQ as in Fig. 6 b; number in the panel = median; untransfected CHO with HopQ: 6 [cont.) c]
# [11] = biological target: CEACAMs endogenously expressed on AGS gastric cancer cells (CEACAM1, CEACAM5 and CEACAM6); assay: cell-based or functional assay
# [12] = biological target: human CEACAM1-Fc (extracellular domains N-A1-B1-A2 fused to a human heavy chain Fc-domain) (human) (UniProt P13688)
# [13] = biological target: T1, human CEACAM1-Fc (extracellular domains N-A1-B1-A2 fused to a human heavy chain Fc-domain) (human, UniProt P13688 35-428); assay: pull-down of live bacteria with CEACAM-Fc; western blot and flow cytometry with α-hu-IgG-FITC [cont.) c]
# T1 construct: extracellular domain; Made in HEK293 cells; also called hu-CEACAM1-Fc; not shown: human heavy chain Fc-domain
# T1 sequence: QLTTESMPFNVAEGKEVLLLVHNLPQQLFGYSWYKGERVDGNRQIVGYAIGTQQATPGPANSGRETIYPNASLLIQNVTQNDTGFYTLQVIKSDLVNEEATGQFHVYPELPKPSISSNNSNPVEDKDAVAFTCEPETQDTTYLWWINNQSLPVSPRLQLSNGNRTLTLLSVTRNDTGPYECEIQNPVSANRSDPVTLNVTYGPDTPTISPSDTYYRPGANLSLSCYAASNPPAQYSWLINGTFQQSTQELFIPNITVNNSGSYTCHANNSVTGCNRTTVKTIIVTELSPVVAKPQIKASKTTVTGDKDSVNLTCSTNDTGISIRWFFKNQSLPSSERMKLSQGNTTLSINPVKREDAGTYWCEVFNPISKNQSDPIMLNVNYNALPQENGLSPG
# [14] = biological target: T2, human CEACAM6-Fc (extracellular domains N-A-B fused to a human heavy chain Fc-domain) (human, UniProt P40199 35-320); assay: as above
# T2 construct: extracellular domain; Made in HEK293 cells; also called hu-CEACAM6-Fc; not shown: human heavy chain Fc-domain
# T2 sequence: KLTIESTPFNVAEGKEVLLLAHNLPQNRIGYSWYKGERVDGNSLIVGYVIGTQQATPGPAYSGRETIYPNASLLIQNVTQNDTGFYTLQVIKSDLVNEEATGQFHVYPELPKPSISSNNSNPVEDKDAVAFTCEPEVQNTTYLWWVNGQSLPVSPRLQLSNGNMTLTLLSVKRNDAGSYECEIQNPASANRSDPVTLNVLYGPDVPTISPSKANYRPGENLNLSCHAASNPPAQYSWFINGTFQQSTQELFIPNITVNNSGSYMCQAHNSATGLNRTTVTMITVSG
# [15] = biological target: T3, recombinant human CEACAM5-Fc (Sino Biological Inc.) (human, UniProt P06731 35-685); assay: as above
# T3 construct: also called hu-CEACAM5-Fc; not shown: Fc part of the bought fusion; not described
# T3 sequence: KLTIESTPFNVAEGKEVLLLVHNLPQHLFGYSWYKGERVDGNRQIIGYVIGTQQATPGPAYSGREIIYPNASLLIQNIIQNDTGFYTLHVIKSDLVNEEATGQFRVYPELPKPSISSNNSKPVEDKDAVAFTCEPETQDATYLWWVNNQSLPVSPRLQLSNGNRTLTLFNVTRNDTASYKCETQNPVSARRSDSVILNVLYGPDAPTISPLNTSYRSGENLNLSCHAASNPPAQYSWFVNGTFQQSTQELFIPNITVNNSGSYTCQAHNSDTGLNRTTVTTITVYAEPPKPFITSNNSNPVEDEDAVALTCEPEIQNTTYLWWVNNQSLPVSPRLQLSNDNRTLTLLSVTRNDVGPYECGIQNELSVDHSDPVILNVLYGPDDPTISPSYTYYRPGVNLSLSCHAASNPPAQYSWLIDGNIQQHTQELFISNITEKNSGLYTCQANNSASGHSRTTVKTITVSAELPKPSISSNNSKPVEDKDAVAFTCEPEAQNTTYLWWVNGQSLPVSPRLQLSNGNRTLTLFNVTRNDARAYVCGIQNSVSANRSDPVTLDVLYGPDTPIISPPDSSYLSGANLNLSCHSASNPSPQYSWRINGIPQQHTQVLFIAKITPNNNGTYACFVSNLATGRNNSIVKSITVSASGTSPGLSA
# CEACAM3 on transfected CHO cells (human), sequence (P40198 35-252): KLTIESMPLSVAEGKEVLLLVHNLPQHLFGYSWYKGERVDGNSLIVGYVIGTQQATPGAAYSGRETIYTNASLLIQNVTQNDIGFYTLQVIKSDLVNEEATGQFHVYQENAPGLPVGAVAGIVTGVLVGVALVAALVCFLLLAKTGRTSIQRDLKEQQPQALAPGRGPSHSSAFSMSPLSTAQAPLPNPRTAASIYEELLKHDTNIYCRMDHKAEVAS
# CEACAM4 on transfected CHO cells (human), sequence (O75871 36-244): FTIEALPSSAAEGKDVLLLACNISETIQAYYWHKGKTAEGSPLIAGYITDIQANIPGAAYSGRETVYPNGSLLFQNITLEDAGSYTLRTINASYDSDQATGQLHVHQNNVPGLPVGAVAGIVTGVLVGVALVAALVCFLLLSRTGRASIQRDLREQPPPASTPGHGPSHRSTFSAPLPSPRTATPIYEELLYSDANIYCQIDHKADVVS
# CEACAM8 on transfected CHO cells (human), sequence (P31997 35-320): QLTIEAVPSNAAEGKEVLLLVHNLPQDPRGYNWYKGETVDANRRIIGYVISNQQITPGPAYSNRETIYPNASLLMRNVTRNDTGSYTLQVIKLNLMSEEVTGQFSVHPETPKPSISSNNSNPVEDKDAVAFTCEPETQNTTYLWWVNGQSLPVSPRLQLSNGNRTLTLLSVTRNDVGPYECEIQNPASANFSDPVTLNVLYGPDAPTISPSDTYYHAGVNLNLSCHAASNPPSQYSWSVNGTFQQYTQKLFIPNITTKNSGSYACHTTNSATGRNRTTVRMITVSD
# CEACAM7 on transfected CHO cells (human), sequence (Q14002 36-242): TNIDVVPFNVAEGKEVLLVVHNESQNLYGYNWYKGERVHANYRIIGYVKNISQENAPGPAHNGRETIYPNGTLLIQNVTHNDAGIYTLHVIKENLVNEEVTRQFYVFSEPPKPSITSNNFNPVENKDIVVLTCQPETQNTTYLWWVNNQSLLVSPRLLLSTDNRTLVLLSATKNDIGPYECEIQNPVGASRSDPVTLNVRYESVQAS
molecule,measurement,setting,value
"H. pylori strain P12 derived, myc and 6x His-tagged recombinant HopQ",median relative fluorescence (FL1-H),[1],32
same,median relative fluorescence (FL1-H),[2],6
same,median relative fluorescence (FL1-H),[3],63
same,median relative fluorescence (FL1-H),[4],6
same,median relative fluorescence (FL1-H),[5],18
same,median relative fluorescence (FL1-H),[6],6
same,median relative fluorescence (FL1-H),[7],12
same,median relative fluorescence (FL1-H),[8],155
same,median relative fluorescence (FL1-H),[9],136
same,median relative fluorescence (FL1-H),[10],18
"HopQ insertion domain (HopQ-ID) representing peptide (aa 190-218), HA-tagged, synthetic","P12-induced phosphorylation of CagA, concentration needed against HopQ^AD (fold higher concentration than HopQ^AD)",[11],10 to 20
Outer membrane protein babA,Score (Sequest),[12],8
Outer membrane protein hopC,Score (Sequest),[12],14.4
Outer membrane protein hopZ,Score (Sequest),[12],31.7
Outer membrane protein sabA,Score (Sequest),[12],6.66
Outer membrane protein sabB,Score (Sequest),[12],23.4
B1,binding result,[13],binds
same,binding result,[14],binds
same,binding result,[15],binds
